# B1: Kappa-casein (Homo sapiens), P07498 (parent)
# chain: MKSFLLVVNALALTLPFLAVEVQNQKQPACHENDERPFYQKTAPYVPMYYVPNSYPYYGTNLYQRRPAIAINNPYVPRTYYANPAVVRPHAQIPQRQYLPNSHPPTVVRRPNLHPSFIAIPPKKIQDKIIIPTINTIATVEPTPAPATEPTVDSVVTPEAFSESIITSTPETTTVAVTPPTA
# B2: Vesicle transport through interaction with t-SNAREs homolog 1B (Homo sapiens), Q9UEU0 (parent)
# chain: MASSAASSEHFEKLHEIFRGLHEDLQGVPERLLGTAGTEEKKKLIRDFDEKQQEANETLAEMEEELRYAPLSFRNPMMSKLRNYRKDLAKLHREVRSTPLTATPGGRGDMKYGIYAVENEHMNRLQSQRAMLLQGTESLNRATQSIERSHRIATETDQIGSEIIEELGEQRDQLERTKSRLVNTSENLSKSRKILRSMSRKVTTNKLLLSIIILLELAILGGLVYYKFFRSH
# partner: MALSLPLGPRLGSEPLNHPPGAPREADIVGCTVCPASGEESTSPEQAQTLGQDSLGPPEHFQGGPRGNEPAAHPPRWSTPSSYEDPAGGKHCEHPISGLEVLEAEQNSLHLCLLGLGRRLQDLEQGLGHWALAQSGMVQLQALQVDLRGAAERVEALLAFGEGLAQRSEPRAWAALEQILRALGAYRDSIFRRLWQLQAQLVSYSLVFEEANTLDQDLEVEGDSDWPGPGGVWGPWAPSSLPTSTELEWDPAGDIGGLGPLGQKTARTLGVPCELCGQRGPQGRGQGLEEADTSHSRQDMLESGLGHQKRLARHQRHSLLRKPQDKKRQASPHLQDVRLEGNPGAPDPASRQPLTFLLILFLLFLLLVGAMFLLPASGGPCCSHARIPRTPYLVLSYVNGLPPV
# B3: Trichoplein keratin filament-binding protein (Homo sapiens), Q9BT92 (parent)
# chain: MALPTLPSYWCSQQRLNQQLARQREQEARLRQQWEQNSRYFRMSDICSSKQAEWSSKTSYQRSMHAYQREKMKEEKRRSLEARREKLRQLMQEEQDLLARELEELRLSMNLQERRIREQHGKLKSAKEEQRKLIAEQLLYEHWKKNNPKLREMELDLHQKHVVNSWEMQKEEKKQQEATAEQENKRYENEYERARREALERMKAEEERRQLEDKLQAEALLQQMEELKLKEVEATKLKKEQENLLKQRWELERLEEERKQMEAFRQKAELGRFLRHQYNAQLSRRTQQIQEELEADRRILQALLEKEDESQRLHLARREQVMADVAWMKQAIEEQLQLERAREAELQMLLREEAKEMWEKREAEWARERSARDRLMSEVLTGRQQQIQEKIEQNRRAQEESLKHREQLIRNLEEVRELARREKEESEKLKSARKQELEAQVAERRLQAWEADQQEEEEEEEARRVEQLSDALLQQEAETMAEQGYRPKPYGHPKIAWN
# B4: mRNA-decapping enzyme 1A (Homo sapiens), Q9NPI6 (parent)
# chain: MEALSRAGQEMSLAALKQHDPYITSIADLTGQVALYTFCPKANQWEKTDIEGTLFVYRRSASPYHGFTIVNRLNMHNLVEPVNKDLEFQLHEPFLLYRNASLSIYSIWFYDKNDCHRIAKLMADVVEEETRRSQQAARDKQSPSQANGCSDHRPIDILEMLSRAKDEYERNQMGDSNISSPGLQPSTQLSNLGSTETLEEMPSGSQDKSAPSGHKHLTVEELFGTSLPKEQPAVVGLDSEEMERLPGDASQKEPNSFLPFPFEQLGGAPQSETLGVPSAAHHSVQPEITTPVLITPASITQSNEKHAPTYTIPLSPVLSPTLPAEAPTAQVPPSLPRNSTMMQAVKTTPRQRSPLLNQPVPELSHASLIANQSPFRAPLNVTNTAGTSLPSVDLLQKLRLTPQHDQIQTQPLGKGAMVASFSPAAGQLATPESFIEPPSKTAAARVAASASLSNMVLAPLQSMQQNQDPEVFVQPKVLSSAIPVAGAPLVTATTTAVSSVLLAPSVFQQTVTRSSDLERKASSPSPLTIGTPESQRKPSIILSKSQLQDTLIHLIKNDSSFLSTLHEVYLQVLTKNKDNHNL
# partner: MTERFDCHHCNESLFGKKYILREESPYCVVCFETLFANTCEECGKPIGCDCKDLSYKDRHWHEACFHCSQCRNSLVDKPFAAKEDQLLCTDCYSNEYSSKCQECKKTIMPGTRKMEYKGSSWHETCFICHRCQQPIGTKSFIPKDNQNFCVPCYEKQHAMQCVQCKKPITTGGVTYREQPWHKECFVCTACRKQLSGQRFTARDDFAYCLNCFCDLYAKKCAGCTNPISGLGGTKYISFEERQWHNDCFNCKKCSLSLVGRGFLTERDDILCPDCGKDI
# B5: Caspase recruitment domain-containing protein 9 (Homo sapiens), Q9H257 (parent)
# chain: MSDYENDDECWSVLEGFRVTLTSVIDPSRITPYLRQCKVLNPDDEEQVLSDPNLVIRKRKVGVLLDILQRTGHKGYVAFLESLELYYPQLYKKVTGKEPARVFSMIIDASGESGLTQLLMTEVMKLQKKVQDLTALLSSKDDFIKELRVKDSLLRKHQERVQRLKEECEAGSRELKRCKEENYDLAMRLAHQSEEKGAALMRNRDLQLEIDQLKHSLMKAEDDCKVERKHTLKLRHAMEQRPSQELLWELQQEKALLQARVQELEASVQEGKLDRSSPYIQVLEEDWRQALRDHQEQANTIFSLRKDLRQGEARRLRCMEEKEMFELQCLALRKDSKMYKDRIEAILLQMEEVAIERDQAIATREELHAQHARGLQEKDALRKQVRELGEKADELQLQVFQCEAQLLAVEGRLRRQQLETLVLSSDLEDGSPRRSQELSLPQDLEDTQLSDKGCLAGGGSPKQPFAALHQEQVLRNPHDAGLSSGEPPEKERRRLKESFENYRRKRALRKMQKGWRQGEEDRENTTGSDNTDTEGS
# partner: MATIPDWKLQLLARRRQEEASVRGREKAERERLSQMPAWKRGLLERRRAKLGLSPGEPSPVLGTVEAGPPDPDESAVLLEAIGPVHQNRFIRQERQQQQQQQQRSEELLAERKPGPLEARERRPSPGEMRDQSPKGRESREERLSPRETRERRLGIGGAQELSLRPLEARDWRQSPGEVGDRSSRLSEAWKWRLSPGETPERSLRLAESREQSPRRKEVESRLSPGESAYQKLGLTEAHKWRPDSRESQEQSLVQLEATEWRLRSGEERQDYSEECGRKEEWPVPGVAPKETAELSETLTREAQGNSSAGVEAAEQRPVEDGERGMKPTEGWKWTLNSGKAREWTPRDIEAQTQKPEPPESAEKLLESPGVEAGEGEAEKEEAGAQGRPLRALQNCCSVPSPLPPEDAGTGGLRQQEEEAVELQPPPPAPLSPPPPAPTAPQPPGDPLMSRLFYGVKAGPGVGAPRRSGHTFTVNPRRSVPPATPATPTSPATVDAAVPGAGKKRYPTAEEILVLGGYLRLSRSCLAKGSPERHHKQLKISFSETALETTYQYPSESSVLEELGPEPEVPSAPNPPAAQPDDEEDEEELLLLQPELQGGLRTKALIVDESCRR
# Variants of: B1
# Settings: with dmrtb_human DMRTB1, Q96MA1
# dmrtb_human DMRTB1, Q96MA1, sequence (Q96MA1 whole entry): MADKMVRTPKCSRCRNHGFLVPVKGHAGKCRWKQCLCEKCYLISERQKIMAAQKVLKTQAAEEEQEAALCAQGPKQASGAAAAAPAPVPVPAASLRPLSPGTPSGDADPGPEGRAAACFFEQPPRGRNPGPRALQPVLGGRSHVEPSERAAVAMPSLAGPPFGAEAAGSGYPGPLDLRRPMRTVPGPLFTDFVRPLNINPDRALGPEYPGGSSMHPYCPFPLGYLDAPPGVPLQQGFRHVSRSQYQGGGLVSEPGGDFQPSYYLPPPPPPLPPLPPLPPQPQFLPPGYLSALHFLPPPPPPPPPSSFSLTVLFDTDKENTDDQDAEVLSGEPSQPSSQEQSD
row,effect of a mutation on the interaction,Variant
1,with no effect,A145T

# Variants of: B2
# Settings: with syne4_human SYNE4, Q8N205
row,effect of a mutation on the interaction,Variant
1,with no effect,R124Q
2,with no effect,R176H

# Variants of: B3
# Settings: with ndk7_human NME7, Q9Y5B8
# ndk7_human NME7, Q9Y5B8, sequence (Q9Y5B8 whole entry): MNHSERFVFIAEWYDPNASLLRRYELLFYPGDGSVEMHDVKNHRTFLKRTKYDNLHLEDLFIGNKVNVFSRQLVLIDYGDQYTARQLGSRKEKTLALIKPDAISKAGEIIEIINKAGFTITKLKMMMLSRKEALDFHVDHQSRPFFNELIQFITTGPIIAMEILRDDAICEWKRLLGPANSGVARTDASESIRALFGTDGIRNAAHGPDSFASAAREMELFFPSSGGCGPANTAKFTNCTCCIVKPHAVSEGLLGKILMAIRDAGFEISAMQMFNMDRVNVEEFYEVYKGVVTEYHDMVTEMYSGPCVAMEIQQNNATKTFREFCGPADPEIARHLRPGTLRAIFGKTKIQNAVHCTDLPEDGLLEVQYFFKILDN
row,effect of a mutation on the interaction,Variant
1,with no effect,E417K
2,with no effect,K127R

# Variants of: B3
# Settings: with KRT15, P19012
# KRT15, P19012, sequence (P19012 whole entry): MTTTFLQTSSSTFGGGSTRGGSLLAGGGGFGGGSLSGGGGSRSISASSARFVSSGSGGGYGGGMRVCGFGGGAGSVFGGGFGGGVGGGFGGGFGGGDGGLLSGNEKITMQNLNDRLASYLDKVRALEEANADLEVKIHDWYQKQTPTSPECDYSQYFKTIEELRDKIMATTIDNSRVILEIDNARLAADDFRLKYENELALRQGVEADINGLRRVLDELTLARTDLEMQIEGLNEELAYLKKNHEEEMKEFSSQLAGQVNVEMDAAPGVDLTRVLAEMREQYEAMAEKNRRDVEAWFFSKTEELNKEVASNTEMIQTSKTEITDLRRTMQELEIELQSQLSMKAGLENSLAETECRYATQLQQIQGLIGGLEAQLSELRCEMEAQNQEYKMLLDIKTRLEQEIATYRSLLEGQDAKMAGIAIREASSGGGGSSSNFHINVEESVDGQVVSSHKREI
row,effect of a mutation on the interaction,Variant
1,with no effect,K127R
2,with no effect,R62Q

# Variants of: B3
# Settings: with cdr2_human CDR2, Q01850
# cdr2_human CDR2, Q01850, sequence (Q01850 whole entry): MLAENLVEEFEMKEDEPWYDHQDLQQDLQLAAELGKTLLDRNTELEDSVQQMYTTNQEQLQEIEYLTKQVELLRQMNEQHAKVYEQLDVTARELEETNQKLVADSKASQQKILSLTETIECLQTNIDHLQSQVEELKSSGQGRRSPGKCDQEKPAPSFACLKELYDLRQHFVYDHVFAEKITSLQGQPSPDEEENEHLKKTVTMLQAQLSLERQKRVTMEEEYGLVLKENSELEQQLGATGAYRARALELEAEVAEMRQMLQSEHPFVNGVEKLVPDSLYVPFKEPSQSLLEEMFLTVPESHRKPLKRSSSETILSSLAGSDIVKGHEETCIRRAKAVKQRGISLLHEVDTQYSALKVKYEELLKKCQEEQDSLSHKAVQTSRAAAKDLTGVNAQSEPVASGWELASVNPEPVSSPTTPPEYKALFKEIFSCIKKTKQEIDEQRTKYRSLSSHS
row,effect of a mutation on the interaction,Variant
1,with no effect,K127R

# Variants of: B4
# Settings: with fhl2_human FHL2, Q14192
row,effect of a mutation on the interaction,Variant
1,with no effect,Q474H
2,with no effect,P332T
3,with no effect,A297G

# Variants of: B5
# Settings: with ppr18_human PPP1R18, Q6NYC8
row,effect of a mutation on the interaction,Variant
1,disrupting interaction strength,V385L

# — IntAct's records for PubMed 31515488
